Results reported in publication PMC8190259, “Site-specific ubiquitylation acts as a regulator of linker histone H1” (Nature Communications, 2021).
One block for each binder: values may come before it.

Experiments:
H1.2 = H1.2 (Homo sapiens, UniProt P16403 1-213); test: condensate FRAP; 5 uM histone, 5 uM DNA; Condensates: 1x PBS, RT; array EMSA: agarose gel with competitor DNA, buffer not in the material; conditions: protein: recombinant; tags: C-terminal His6; label: Atto-390 at 5' end of the reverse strand; blunt
[1] = biological target: T1, linker histone H1.2 (unmodified, recombinant) (human, UniProt P16403 1-213); test: cross-linking; XL-MS: histone/Ub and SIRT1 at molar ratio 1:1 in 1x PBS, 2.75 mM BS3-H12/D12, 10 min on ice then 20 min at 30 °C; three biological replicates; conditions: both partners purified
T1 construct: human linker histone H1.2; also called non-modified H1.2; unmodified H1.2; source: E. coli BL21 (DE3), purified from inclusion bodies (His-tag resin); not shown: Strep-tag II, N-terminal, kept; His6, C-terminal, kept
T1 sequence (P16403 whole entry): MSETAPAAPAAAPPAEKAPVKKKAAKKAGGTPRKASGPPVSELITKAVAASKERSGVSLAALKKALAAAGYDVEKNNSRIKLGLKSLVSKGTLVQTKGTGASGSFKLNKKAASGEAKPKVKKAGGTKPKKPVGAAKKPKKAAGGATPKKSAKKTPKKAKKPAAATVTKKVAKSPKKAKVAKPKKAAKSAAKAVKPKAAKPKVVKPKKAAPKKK

Sequence of H1.2 (P16403 whole entry): as above

B1: 601 DNA (dsDNA)
DNA 1: CTATACGCGGCCGCCCTGGAGAATCCCGGTGCCGAGGCCGCTCAATTGGTCGTAGCAAGCTCTAGCACCGCTTAAACGCACGTACGCGCTGTCCCCCGCGTTTTAACCGCCAAGGGGATTACTCCCTAGTCTCCAGGCACGTGTCAGATATATACATCCTGTGCATGTGGATCCGAAT
DNA 2: ATTCGGATCCACATGCACAGGATGTATATATCTGACACGTGCCTGGAGACTAGGGAGTAATCCCCTTGGCGGTTAAAACGCGGGGGACAGCGCGTACGTGCGTTTAAGCGGTGCTAGAGCTTGCTACGACCAATTGAGCGGCCTCGGCACCGGGATTCTCCAGGGCGGCCGCGTATAG
binding result (H1.2): binds

binding result [1]: binds
B2: SIRT1 with N-terminal deletion (recombinant) (enzyme, human, UniProt Q96EB6 1-3, looked up)
chain: MADEAAAAGGEQEAQATAAAGEGDNGPGLQGPSREPPLADNLYDEDDDDEGEEEEEAAAAAIGYRDNLLFGDEIITNGFHSCESDEEDRASHASSSDWTPRPRIGPYTFVQQHLMIGTDPRTILKDLLPETIPPPELDDMTLWQIVINILSEPPKRKKRKDINTIEDAVKLLQECKKIIVLTGAGVSVSCGIPDFRSRDGIYARLAVDFPDLPDPQAMFDIEYFRKDPRPFFKFAKEIYPGQFQPSLCHKFIALSDKEGKLLRNYTQNIDTLEQVAGIQRIIQCHGSFATASCLICKYKVDCEAVRGDIFNQVVPRCPRCPADEPLAIMKPEIVFFGENLPEQFHRAMKYDKDEVDLLIVIGSSLKVRPVALIPSSIPHEVPQILINREPLPHLHFDVELLGDCDVIINELCHRLGGEYAKLCCNPVKLSEITEKPPRTQKELAYLSELPPTPLHVSEDSSSPERTSPPDSSVIVTLLDQAAKSNDDLDVSESKGCMEEKPQEVQTSRNVESIAEQMENPDLKNVGSSTGEKNERTSVAGTVRKCWPNRVAKEQISRRLDGNQYLFLPPNRYIFHGAEVYSDSEDDVLSSSSCGSNSDSGTCQSPSLEEPMEDESEIEEFYNGLEDEPDVPERAGGAGFGTDGDDQEAINEAISVKQEVTDMNYPSNKS
notes: human NAD+-dependent deacetylase SIRT1, aa 1-3 (construct of 669 aa: aa 1-3 + 82-747); human NAD+-dependent deacetylase SIRT1, aa 82-747 (construct of 669 aa: aa 1-3 + 82-747); source: E. coli BL21 (DE3), purified (HisTrap FF, size-exclusion chromatography); not shown: His6, C-terminal, kept
